Measured values as given in patent publication US20100291145A1.

Molecular target: human melanoma gp100(46-58) peptide, Ac-…-NH2 (human)
Assay: ELISA, gp100(46-58) peptide on plate; naive DR4-IE Tg serum; anti-IgG2a detection

- ELISA IgG2a signal at serum dilution 1:20: 0.063
- ELISA IgG2a signal at serum dilution 1:60: 0.058
- ELISA IgG2a signal at serum dilution 1:180: 0.056
- ELISA IgG2a signal at serum dilution 1:540: 0.055
Substance: serum of naive DR4-IE Tg mice (control of Tables 23.9 and 23.10) (antibody)
